Results from publication PMC10953408.
One block for each substance: values may come before it.

Legend:
LgBit‐IL12Rβ1 [1] = target: LgBit‐IL12Rβ1 (UniProt P42701); assay: split reporter (BiFC, NanoBiT); complementary NanoBiT-tagged receptor constructs co-expressed in HEK293T cells; luminescence of living cells in HBSS with 1 mg/ml BSA after furimazine, plate reader; with or without 10 nM IL-23, with or without co-expressed untagged IL12Rβ1
LgBit‐IL23R = LgBit‐IL23R (UniProt Q5VWK5); assay: as above
LgBit‐IL12Rβ1 [2] = target: LgBit‐IL12Rβ1 (UniProt P42701); assay: split reporter (BiFC, NanoBiT); HiBit-IL23R (80 ng per well) co-transfected with LgBit-IL12Rβ1 or LgBit-VEGFR-2 (20 ng per well) in HEK293T cells; luminescence given as percent of that of the LgBit receptor alone with 50 nM purified HiBit; HBSS/0.1% BSA, 37°C
LgBit‐VEGFR‐2 = LgBit‐VEGFR‐2 (UniProt P35968); assay: as above
[3] = target: NanoBiT complemented heteromer of HiBit‐IL23R and LgBit‐IL12Rβ1 (UniProt Q5VWK5)
[4] = target: NanoBiT complemented heteromer of HiBit‐IL23R and LgBit‐IL12Rβ1 (UniProt Q5VWK5); assay: FRET or BRET; NanoBiT BRET saturation: concentration titration of IL23-TMR for 1 h on living HEK293T cells expressing complemented NanoBiT receptors, with or without unlabelled IL-23; HBSS with 1 mg/ml BSA; one site total and nonspecific fit
[5] = target: Trimeric or multimeric species of HiBit‐IL23R, LgBit‐IL23R and IL12Rβ1 (UniProt Q5VWK5); assay: as above

- fold luminescence over the mean of the receptor constructs expressed in isolation (LgBit‐IL12Rβ1 [1]): 73.3 fold
- fold lower luminescence than the equivalent heteromeric condition (LgBit‐IL23R): 2.12 fold
- fold stronger luminescence than the SmBit homomer (LgBit‐IL23R): 6.36 fold
- luminescence as percent of that of LgBit-IL12Rβ1 with 50 nM purified HiBit (LgBit‐IL12Rβ1 [2]): 73%
- luminescence as percent of that of LgBit-VEGFR-2 with 50 nM purified HiBit (LgBit‐VEGFR‐2): 11.6%
Substance: HiBit‐IL23R (from UniProt Q5VWK5 24-629) (receptor)

- EC50 of STAT3 phosphorylation (phospho-STAT3 AlphaLISA), increasing concentrations of IL-23 on cells expressing HiBit-IL23R and LgBit-IL12Rβ1 [3]: 193 pM
Substance: Recombinant IL‐23 (from UniProt Q9NPF7 20-189; P29460 23-328) (ligand)

- fold lower luminescence than HiBit-IL23R with LgBit-IL12Rβ1 (LgBit‐IL12Rβ1 [1]): 6.19 fold
- fold luminescence over the mean of the receptor constructs expressed in isolation (LgBit‐IL12Rβ1 [1]): 10.3 fold
- fold lower luminescence than the equivalent heteromeric condition (LgBit‐IL23R): 2.18 fold
Substance: SmBit‐IL23R (from UniProt Q5VWK5 24-629) (receptor)

- Kd [4]: 0.234 nM
- Kd [5]: 0.0362 nM
Substance: Tetramethylrhodamine (TMR) tagged IL‐23 (from UniProt Q9NPF7 20-189; P29460 23-328) (ligand)
